T1: human PRLR on cells (human, UniProt P16471 25-622)
T1 sequence: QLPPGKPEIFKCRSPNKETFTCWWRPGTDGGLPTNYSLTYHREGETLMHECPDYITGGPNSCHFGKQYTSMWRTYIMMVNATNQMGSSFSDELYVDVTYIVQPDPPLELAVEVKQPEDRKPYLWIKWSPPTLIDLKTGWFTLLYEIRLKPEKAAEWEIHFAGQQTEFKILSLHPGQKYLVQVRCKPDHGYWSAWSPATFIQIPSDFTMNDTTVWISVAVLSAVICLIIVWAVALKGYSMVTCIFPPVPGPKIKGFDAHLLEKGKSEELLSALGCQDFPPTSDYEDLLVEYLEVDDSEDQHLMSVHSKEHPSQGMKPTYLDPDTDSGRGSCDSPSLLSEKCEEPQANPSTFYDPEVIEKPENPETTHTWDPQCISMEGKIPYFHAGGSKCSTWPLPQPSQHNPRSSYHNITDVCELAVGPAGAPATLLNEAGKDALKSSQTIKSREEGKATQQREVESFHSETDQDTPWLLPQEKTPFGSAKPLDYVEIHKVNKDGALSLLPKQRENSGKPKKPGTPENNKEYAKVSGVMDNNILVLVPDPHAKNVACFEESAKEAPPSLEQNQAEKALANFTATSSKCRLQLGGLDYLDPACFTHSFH

T2: mouse PRLR ECD-Fc fusion protein (mouse, UniProt Q08501 20-229)
T2 construct: extracellular domain; not shown: Fc region (captured by goat anti-human Fc)
T2 sequence (looked up): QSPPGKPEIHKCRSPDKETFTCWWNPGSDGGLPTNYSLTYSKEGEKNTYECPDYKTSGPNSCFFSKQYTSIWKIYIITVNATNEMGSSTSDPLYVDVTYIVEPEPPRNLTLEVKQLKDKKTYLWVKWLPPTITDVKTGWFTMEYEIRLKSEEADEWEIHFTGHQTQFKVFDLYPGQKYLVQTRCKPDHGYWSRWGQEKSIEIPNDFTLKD

T3: human PRLR ECD-Fc fusion protein (human, UniProt P16471 25-233)
T3 construct: not shown: Fc region (captured by goat anti-human Fc)
T3 sequence: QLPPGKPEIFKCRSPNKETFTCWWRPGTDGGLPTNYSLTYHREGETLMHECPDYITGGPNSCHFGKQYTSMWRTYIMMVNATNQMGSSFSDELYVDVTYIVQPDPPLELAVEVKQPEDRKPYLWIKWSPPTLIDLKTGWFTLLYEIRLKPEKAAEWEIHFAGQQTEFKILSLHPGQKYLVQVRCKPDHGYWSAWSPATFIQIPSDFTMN

T4: rat PRLR ECD-Fc fusion protein (rat, UniProt P05710 20-229)
T4 construct: extracellular domain; not shown: Fc region (captured by goat anti-human Fc)
T4 sequence (looked up): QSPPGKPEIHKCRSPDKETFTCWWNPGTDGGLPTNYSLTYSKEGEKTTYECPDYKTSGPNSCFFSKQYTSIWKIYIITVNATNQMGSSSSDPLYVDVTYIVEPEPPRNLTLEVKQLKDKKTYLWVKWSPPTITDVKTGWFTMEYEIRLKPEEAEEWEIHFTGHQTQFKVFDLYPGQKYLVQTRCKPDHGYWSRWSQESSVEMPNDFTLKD

T5: cyno PRLR (Biacore antigen) (cyno, UniProt A0A2K5WXK1 25-234)
T5 construct: also called cyPRLR
T5 sequence: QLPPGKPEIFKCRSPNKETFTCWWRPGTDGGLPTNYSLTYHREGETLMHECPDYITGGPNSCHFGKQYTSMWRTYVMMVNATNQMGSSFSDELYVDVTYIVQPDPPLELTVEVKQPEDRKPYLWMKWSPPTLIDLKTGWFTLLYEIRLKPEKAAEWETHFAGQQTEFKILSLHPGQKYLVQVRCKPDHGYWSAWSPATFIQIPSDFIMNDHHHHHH

T6: human PRLR (Biacore antigen) (human, UniProt P16471 25-234, limits assumed)
T6 construct: The construct injected over captured antibody is not described (a soluble form is likely); also called huPRLR
T6 sequence: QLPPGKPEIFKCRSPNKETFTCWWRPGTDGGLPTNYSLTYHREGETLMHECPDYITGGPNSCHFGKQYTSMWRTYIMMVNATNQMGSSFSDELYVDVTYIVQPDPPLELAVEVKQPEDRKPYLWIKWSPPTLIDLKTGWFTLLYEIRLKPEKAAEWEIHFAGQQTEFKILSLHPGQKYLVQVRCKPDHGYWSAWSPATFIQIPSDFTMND

T7: murine PRLR (Biacore antigen) (murine, UniProt Q08501 20-229, limits assumed)
T7 construct: also called muPRLR
T7 sequence (looked up): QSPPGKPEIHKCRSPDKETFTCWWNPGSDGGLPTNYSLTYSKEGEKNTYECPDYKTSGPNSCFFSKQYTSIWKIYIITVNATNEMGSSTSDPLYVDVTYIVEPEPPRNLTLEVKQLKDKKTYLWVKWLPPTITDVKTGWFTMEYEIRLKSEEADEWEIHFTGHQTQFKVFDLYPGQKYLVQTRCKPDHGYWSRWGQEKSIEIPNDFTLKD

T8: mouse PRLR on Baf3-mPRLR cells (mouse, UniProt Q08501 20-608)
T8 sequence (looked up): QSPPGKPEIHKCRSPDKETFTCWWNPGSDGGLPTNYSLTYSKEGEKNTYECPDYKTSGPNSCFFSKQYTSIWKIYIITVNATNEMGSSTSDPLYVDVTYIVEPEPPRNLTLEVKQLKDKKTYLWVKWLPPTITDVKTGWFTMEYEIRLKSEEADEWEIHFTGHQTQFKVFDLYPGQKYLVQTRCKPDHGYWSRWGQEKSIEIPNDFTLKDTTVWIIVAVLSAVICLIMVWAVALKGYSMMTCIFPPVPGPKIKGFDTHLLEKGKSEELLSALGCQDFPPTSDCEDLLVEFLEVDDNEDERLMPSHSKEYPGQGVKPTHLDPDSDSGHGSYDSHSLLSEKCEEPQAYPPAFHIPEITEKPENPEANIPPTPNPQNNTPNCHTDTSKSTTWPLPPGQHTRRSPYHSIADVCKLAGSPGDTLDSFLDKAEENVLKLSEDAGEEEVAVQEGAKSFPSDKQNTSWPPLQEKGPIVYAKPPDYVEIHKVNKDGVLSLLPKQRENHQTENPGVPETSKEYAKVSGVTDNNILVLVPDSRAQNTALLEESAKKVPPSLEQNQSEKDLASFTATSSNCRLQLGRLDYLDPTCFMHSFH

T9: rat PRLR on Nb2-11 rat lymphoma cells (rat, UniProt P05710 20-610)
T9 sequence (looked up): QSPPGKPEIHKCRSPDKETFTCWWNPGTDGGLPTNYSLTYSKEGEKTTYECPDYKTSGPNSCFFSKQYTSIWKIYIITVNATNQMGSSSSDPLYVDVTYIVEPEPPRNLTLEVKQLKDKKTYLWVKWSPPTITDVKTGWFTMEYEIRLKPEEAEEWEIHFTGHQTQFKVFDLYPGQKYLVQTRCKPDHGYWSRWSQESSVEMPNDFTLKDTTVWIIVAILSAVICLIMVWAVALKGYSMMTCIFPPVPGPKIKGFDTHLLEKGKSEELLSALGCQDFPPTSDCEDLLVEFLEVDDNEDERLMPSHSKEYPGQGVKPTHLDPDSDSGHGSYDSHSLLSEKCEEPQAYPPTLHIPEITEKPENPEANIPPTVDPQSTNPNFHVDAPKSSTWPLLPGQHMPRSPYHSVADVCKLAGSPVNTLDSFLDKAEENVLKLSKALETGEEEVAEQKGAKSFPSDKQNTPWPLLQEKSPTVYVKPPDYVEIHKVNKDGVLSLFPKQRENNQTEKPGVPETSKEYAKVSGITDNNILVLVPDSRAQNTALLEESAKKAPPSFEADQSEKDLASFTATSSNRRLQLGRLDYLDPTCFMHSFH

B1: Ab8 (antibody, V domains shown)
VH: EVQLQQSGPELVKPGASVKISCKASGYTFTDYNIHWVKQSHGKSLEWIGYIYPNNDGTGYNQKFKSKATLTVDNSSSTAYMEVRSLTSEDSAVYYCARGDGNYVGDMDYWGQGTSVTVSS
VL: DIQMTQSPASLSASVGETVTITCRASENIYSYLAWYQQKQGKPPQLLVYNAKTLAEGVPSRFSGGGSGTQFSLKINSLQPEDFGSYYCQHHYATPFTFGSGTKLEIK
notes: murine monoclonal, isotype G2b; also called murine Ab8
B2: Ab54 (antibody, human IgG1, kappa, V domains shown)
VH: EVQLVQSGAEVKKPGSSVKVSCKASGYTFTSYWIHWVRQAPGQGLEWIGEIDPSDSYTNYNQKFKGRATLTVDKSSSTAYMELSSLRSEDTAVYYCGRSFFTNWFAYWGQGTLVTVSS
VL: DVVMTQTPLSLSVTPGQPASISCRSSQSLVHSNGNTYLHWYLQKPGQSPQLLIYKVSNRFSGVPDRFSGSGSGTDFTLKISRVEAEDVGVYFCSQSTHVPFTFGGGTKVEIKR
notes: humanized from Ab7 (back mutations on Ab39); G1; also called Ab4 HC.1a.3 and Ab4 LC.1a
B3: Ab55 (antibody, human IgG1, kappa, V domains shown)
VH: EVQLVQSGAEVKKPGSSVKVSCKASGYTFTSYWIHWVRQAPGQGLEWIGEIDPSDSYTNYNQKFKGRATLTVDRSSSTAYMELSSLRSEDTAVYYCGRSFFTNWFAYWGQGTLVTVSS
VL: DVVMTQTPLSLSVTPGQPASISCRSSQSLVHSNGNTYLHWYLQKPGQSPQLLIYKVSNRFSGVPDRFSGSGSGTDFTLKISRVEAEDVGVYFCSQSTHVPFTFGGGTKVEIKR
notes: humanized from Ab7 (back mutations on Ab39); G1; also called Ab4 HC.1a.2 and Ab4 LC.1a
B4: Ab9 (antibody, V domains shown)
VH: EVQLQQSGPELVRPGASVKISCKASGYSFTDYNMHWVKQSHGKSLEWIGYIYPYNGGAGYNQKFKSKATMNVGISSSTAYMELRSLTSEDSAVYYCARGDGNYVGDMDYWGQGTSVTVSS
VL: DIQMTQSPASLSASVGETVTITCRASENIYSYLAWYQQKQGKSPQLLVYNAKTLAEGVPSRFSGSGSGTQFSLKINSLQPEDFGSYYCQHHSGTPFTFGSGTKLEIK
notes: murine monoclonal, isotype G2b; also called murine Ab9
B5: chAb12 (antibody, human IgG1, kappa, V domains shown)
VH: DVQLQESGPGLVKPSQSLSLTCTVTGYSITSDYAWNWIRQFPGNKLEWMGYIGYSGRTSFNPSLKSRISITRDTSKNQFFLQLNSVTTEDTATYYCARGGFAMDYWGQGTSVTVSS
VL: QIVLTQSPGIMSASPGEKVTMTCSASSSVTYMYWYQQKPRSSPKPWIYLTSNLASGVPARFSGSGSGTSYSLTISSMEAEDGATYYCQQWSSTPPLTFGGGTKLELNT

Columns and labels:
[1] = molecular target: cyno PRLR on Baf3-cyPRLR cells (cyno); test: cell-based or functional assay
[2] = molecular target: T1, human PRLR on cells; test: cell-based or functional assay
[3] = molecular target: T2, mouse PRLR ECD-Fc fusion protein; test: ELISA on ECD
How it was run: (§1)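 EC50 values derive from fitted binding curves of antibody serial dilutions (1 h) on captured PRLR. Detection used an HRP-conjugated secondary (1 h), TMB development for 3–5 min, an H₂SO₄ stop and a 450 nm read, with all steps in Tween/PBS pH 7.4 buffer.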

[4] = molecular target: T3, human PRLR ECD-Fc fusion protein; test: ELISA on ECD
How it was run: as §1

[5] = molecular target: T4, rat PRLR ECD-Fc fusion protein; test: ELISA on ECD
How it was run: as §1

[6] = molecular target: T5, cyno PRLR (Biacore antigen); test: SPR Biacore
How it was run: (§2)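 Association rate, dissociation rate and dissociation constant were measured by surface plasmon resonance on a Biacore instrument. PRLR antigen was tested at 600 nM, 66.67 nM and 7.41 nM, a 3-point, 9-fold dilution series. Constants came from a 1:1 binding model fit (local Rmax, mass-transport term included) in Biacore T200 Evaluation Software.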

[7] = molecular target: T6, human PRLR (Biacore antigen); test: SPR Biacore
How it was run: as §2

[8] = molecular target: T7, murine PRLR (Biacore antigen); test: SPR Biacore
How it was run: as §2

[9] = molecular target: T1, human PRLR on cells; test: FACS T47D 10 ug/mL
[10] = molecular target: T6, human PRLR (Biacore antigen); test: SPR Biacore; remark: listed apart in the source
[11] = molecular target: T8, mouse PRLR on Baf3-mPRLR cells; test: cell-based or functional assay
[12] = molecular target: T9, rat PRLR on Nb2-11 rat lymphoma cells; test: cell-based or functional assay
[13] = molecular target: T9, rat PRLR on Nb2-11 rat lymphoma cells; test: FACS Nb2-11 20 ug/mL
Experimental: (§3) Nb2-11 and Baf3-xPRLR cells were resuspended in FACS buffer (PBS+1% FBS) at 2 millions cells/mL. Cells were added to round bottom 96-well plate (100 uL/well) and treated with testing PRLR antibodies for 1 hr at 4 C. Cells were then washed with FACS buffer twice and incubated with 2nd antibody conjugated to ALEXA488 (Invitrogen) for 1 hr at 4 C. After two washes in FACS buffer, cells were resuspended in 1% formaldehyde in PBS. Cells were analyzed using LSRII flowcytometer.

[14] = molecular target: T8, mouse PRLR on Baf3-mPRLR cells; test: FACS Baf3-mPRLR 10 ug/mL
Experimental: as §3

Binder	Baf3-cyPRLR proliferation IC50 [1] [µg/mL]	Baf3-hPRLR proliferation IC50 [2] [µg/mL]	T47D pPRLR ELISA IC50 [2] [µg/mL]	EC50 [4] [nM]	Kd [6] [nM]	koff [6] [s⁻¹]	kon [6] [M⁻¹ s⁻¹]	Kd [7] [nM]	koff [7] [s⁻¹]	kon [7] [M⁻¹ s⁻¹]	Kd [8] [nM]	koff [8] [s⁻¹]	kon [8] [M⁻¹ s⁻¹]	FACS GeoMean-neg [9]	fold weaker affinity than chAb7 [10] [fold]	Nb2-11 proliferation IC50 [12] [µg/mL]	other results
B1	1.64	1.15	0.219	0.098	2.2	0.00116	526000	0.153	8.19e-05	536000	259	0.0466	180000	1530	–	–	EC50 [3]: 0.342 nM; EC50 [5]: 0.205 nM
B2	–	0.77	–	–	0.85	0.00012	140000	1	0.00014	140000	170	0.007	41000	–	~5	–	–
B3	–	0.92	–	–	0.59	9.8e-05	170000	0.67	0.00012	170000	140	0.0063	44000	–	~4	–	–
B4	6.4	0.51	0.072	0.072	–	–	–	0.226	0.000131	577000	–	–	–	1870	–	> 30	Baf3-mPRLR proliferation IC50 [11]: > 30 µg/mL; FACS GeoMean-neg [13]: 0; FACS GeoMean-neg [14]: 1
B5	> 10	10.7	–	–	–	–	–	–	–	–	–	–	–	–	–	41.4	–

From patent US20170022281A1 (AbbVie / Abbott, published 2017)
